Test results taken from patent US7094548B2, “Purification of recombinant proteins fused to multiple epitopes” (Sigma-Aldrich Co., priority 1999, dated 2006).

Experiments:
[1] = molecular target: 3XFLAG-BAP (bacterial alkaline phosphatase with the triple FLAG sequence at the N-terminus) (E. coli) [phosphatase: P00634]; assay: ELISA
[2] = molecular target: 3XFLAG-BAP (bacterial alkaline phosphatase with the triple FLAG sequence at the N-terminus) (E. coli) [phosphatase: P00634]; assay: dot blot
[3] = molecular target: 3XFLAG-BAP (bacterial alkaline phosphatase with the triple FLAG sequence at the N-terminus) (E. coli) [phosphatase: P00634]; assay: western blot, M2 at 10 ug/ml, chemiluminescence, longer exposure
[4] = molecular target: 3XFLAG-BAP (bacterial alkaline phosphatase with the triple FLAG sequence at the N-terminus) (E. coli) [phosphatase: P00634]; assay: western blot, M2 at 10 ug/ml, chemiluminescence
[5] = test system: anti-FLAG M2 affinity gel; assay: Competitive elution from anti-FLAG M2 affinity gel; format: binding; details: for competitive elution from anti-FLAG M2 affinity gel using 3XFLAG peptide: competitor: 3XFLAG peptide
FLAG M2 antibody = assay: Isothermal titration calorimetry of M2 antibody binding to FLAG epitopes; details: 25° C., PBS containing 0.05% sodium azide, for 3XFLAG system r>1000, accurate Ka can not be determined, in M-1 (unit assumed)
Procedure: Thermodynamic analysis of the M2 antibody binding to the FLAG epitopes was measured by isothermal titration calorimetry using an OMEGA calorimeter (Microcal). All samples were dialyzed against PBS containing 0.05% sodium azide and degassed prior to the measurements. All measurements were made at 25° C. The concentration of M2 antibody was between 15 and 50 uM depending upon which samples were used. The concentration of the titrants were 605 uM for the 1X BAP, 1110 uM for the 1X FLAG peptide, 400 uM for the 3X BAP, and 580 uM for the 3XFLAG peptide. Injections were carried out every 2.5 to 3.0 minutes which was sufficient for baseline to be achieved with injection volumes ranging from 4 to 11 uL. Injections were carried out over a 4 to 10 second period while stirring at 400 rpm. Data analysis and fitting were performed using the Origin software supplied by MicroCal. The enthalpies were obtained by numerical integration of the data and subtraction of the heats of dilution. Values of Ka, n the number of binding sites were determined by fitting the data to a theoretical curve with only the enthalpy was held constant during the fitting process.

M2 antiFLAG antibody = assay: Western blot of purified FLAG-BAP probed with M2 anti-FLAG antibody, chemiluminescent detection; format: binding
Procedure: E. coli BL21 (DE3) were transformed with the expression plasmid containing the triple FLAG BAP construct made according to the methods of Example 1. Cells were grown in terrific broth containing 100 μg/ml ampicillin at 37° C. with agitation. The culture was grown to an OD600=4.0 and then induced with IPTG at a final concentration of 1 mM. The cell culture was grown for an additional 3 hours at 37° C. and then harvested by centrifugation. The cell pellet was resuspended in 50 mM Tris-HCl. pH 8.0 and the cells disrupted by sonication and cellular debris removed by centrifugation. The supernatant was applied to M2 affinity gel was equilibrated with 50 mM Tris-HCI pH 8.0, 150 mM NaCl (TBS). The resin was washed with 20 bed volumes of TBS and then the triple FLAG BAP was eluted with five column volumes of 0.1 M Glycine pH 3.5.
The eluted protein was pooled and adjusted to pH 7.5 with 1.0 M Tris-HCl pH 8.0. Protein content was determined by both Bradford and by absorbance using ε280=0.7ml/mg.
Purified 3XFLAG-BAP and N-BAP were diluted with to 2X Laemlli buffer, boiled for five minutes and then placed on ice. Samples were resolved on a 15% SDS-PAGE using the method of Laemlli (Laemli, V., Nature, 227:680–685 (1970)) and then transferred to nitrocellulose membranes. The membrane was blocked with phosphate buffered saline containing 3% non-fat dry milk for 1 hour and then rinsed three times in TBS, 0.05% Tween 20 (TBS-T). The membrane was incubated with M2 antibody at a final concentration of 10 μg/ml for 30 minutes in TBS-T and then rinsed three times in TBS-T. The membrane was then incubated for 30 minutes with a goat […] IgG (whole molecule) Horseradish peroxidase(HRP) conjugate diluted 1:10,000 in TBS-T then rinsed three times in TBS-T. The FLAG tagged protein were detected with the HRP conjugates and visualized by chemilumenescent detection using ECL (Amersham) and Kodak X-Omat MR film according to manufacturer's directions with exposures from 1 to 30 minutes.

| Molecule | fold increase in detection against single FLAG [1] [fold] | fold increase in detection against single FLAG [2] [fold] | amount detected [3] [picograms] | amount detected [4] [picograms] | fold increase in detection limit against single FLAG-BAP [4] [fold] | competitive elution from anti-FLAG M2 affinity gel using 3XFLAG peptide [5] | elution from anti-FLAG M2 affinity gel by competition with the original FLAG peptide ([5]; competitor: original FLAG peptide) | Ka (association constant) (FLAG M2 antibody) | amount of purified protein detected (M2 antiFLAG antibody; exposures as short as 1 minute) [picograms] | amount of purified protein detected (M2 antiFLAG antibody; increased exposure time, with increased background) [picograms] | increase in detection limit compared to the single FLAG-BAP fusion protein (M2 antiFLAG antibody; western blot, M2 antibody, chemiluminescence) [fold] |
| --- | --- | --- | --- | --- | --- | --- | --- | --- | --- | --- | --- |
| anti-FLAG M2 monoclonal antibody | > 10 | > 10 | 100 | 500 | 10 |  |  |  |  |  |  |
| 3XBAP: triple FLAG version of bacterial alkaline phosphatase expressed in E. coli from p3XFLAG-ATS-BAP and purified on M2 affinity gel (protein) MDYKDHDGDYKDHDIDYKDDDDKMPVLENRAAQGDITAPGGARRLTGDQTAALRDSLSDKPAKNIILLIGDGMGDSEITAARNYAEGAGGFFKGIDALPLTGQYTHYALNKKTGKPDYVTDSAASATAWSTGVKTYNGALGVDIHEKDHPTILEMAKAAGLATGNVSTAELQDATPAALVAHVTSRKCYGPSATSEKCPGNALEKGGKGSITEQLLNARADVTLGGGAKTFAETATAGEWQGKTLREQAQARGYQLVSDAASLNSVTEANQQKPLLGLFADGNMPVRWLGPKATYHGNIDKPAVTCTPNPQRNDSVPTLAQMTDKAIELLSKNEKGFFLQVEGASIDKQDHAANPCGQIGETVDLDEAVQRALEFAKKEGNTLVIVTADHAHASQIVAPDTKAPGLTQALNTKDGAVMVMSYGNSEEDSQEHTGSQLRIAAYGPHAANVVGLTDQTDLFYTMKAALGLK |  |  |  |  |  | can be competitively eluted | cannot be eluted | 2.09E+08 | 500 | 100 | 10 |
| 1XBAP: bacterial alkaline phosphatase fusion protein containing the traditional FLAG epitope (DYKDDDDK), expressed in E. coli and purified (protein) DYKDDDDKMPVLENRAAQGDITAPGGARRLTGDQTAALRDSLSDKPAKNIILLIGDGMGDSEITAARNYAEGAGGFFKGIDALPLTGQYTHYALNKKTGKPDYVTDSAASATAWSTGVKTYNGALGVDIHEKDHPTILEMAKAAGLATGNVSTAELQDATPAALVAHVTSRKCYGPSATSEKCPGNALEKGGKGSITEQLLNARADVTLGGGAKTFAETATAGEWQGKTLREQAQARGYQLVSDAASLNSVTEANQQKPLLGLFADGNMPVRWLGPKATYHGNIDKPAVTCTPNPQRNDSVPTLAQMTDKAIELLSKNEKGFFLQVEGASIDKQDHAANPCGQIGETVDLDEAVQRALEFAKKEGNTLVIVTADHAHASQIVAPDTKAPGLTQALNTKDGAVMVMSYGNSEEDSQEHTGSQLRIAAYGPHAANVVGLTDQTDLFYTMKAALGLK |  |  |  |  |  | can be competitively eluted |  | 1.69E+07 |  |  |  |
